This is an account of results in publication PMC12434095, “LysR-type transcriptional regulator CARR represses the expression of bla CAR-2 and reduces P. diazotrophicus resistance to cefalothin, cefuroxime and cefotaxime” (Frontiers in Cellular and Infection Microbiology, 2025).

Assay in all cases: purified protein
Common to all, as to format: biochemical, Phytobacter diazotrophicus

Data set [1] relates to CC(=O)OCC1=C(C(=O)O)N2C(=O)[C@@H](NC(=O)Cc3cccs3)[C@H]2SC1. As to conditions: 50 mM HEPES pH 7.5, 25°C, 50 µM ZnSO4, 0.634 µM enzyme.
Data set [2] has as its system CO/N=C(\C(=O)N[C@@H]1C(=O)N2C(C(=O)O)=C(COC(C)=O)CS[C@H]12)c1csc(N)n1. Conditions: 50 mM HEPES pH 7.5, 25°C, 50 µM ZnSO4, 0.634 µM enzyme, kcat 0.61 in source.
The test system of data set [3] is CO/N=C(\C(=O)N[C@@H]1C(=O)N2C(C(=O)O)=C(COC(N)=O)CS[C@H]12)c1ccco1. Conditions: 50 mM HEPES pH 7.5, 25°C, 50 µM ZnSO4, 1.27 µM enzyme.

With CAR-2 (Phytobacter diazotrophicus), in data set [1], the Km turned out to be 63.78 µM, the Vmax came to 31.8 µM/min, the kcat came to 0.84 s⁻¹ and the kcat/Km is 13200 M⁻¹ s⁻¹. In data set [2], the Km stood at 33.08 µM, the maximum rate (Vmax) was found to be 23.4 µM/min, the kcat is 0.62 s⁻¹ and the kcat/Km was 18700 M⁻¹ s⁻¹. Besides, in data set [3], the Km was 49.28 µM, the Vmax was determined as 16.2 µM/min, the kcat amounted to 0.21 s⁻¹ and the kcat/Km was found to be 4260 M⁻¹ s⁻¹.

One may read the Km as the substrate concentration at which the rate is half of its maximum. For orientation: Vmax means the top rate of the reaction or transport when substrate is in excess. As a reminder, the kcat is the number of substrate molecules converted per active site and unit of time at saturation. For orientation: kcat/Km means the second-order rate constant that governs catalysis at low substrate concentration.
